Results reported in IntAct's records for PubMed 17405859.

B1: Neuropilin-1 (Rattus norvegicus (Rat)), Q9QWJ9 (parent)
chain: MERGLPLLCATLALALALAGAFRSDKCGGTIKIENPGYLTSPGYPHSYHPSEKCEWLIQAPEPYQRIMINFNPHFDLEDRDCKYDYVEVIDGENEGGRLWGKFCGKIAPSPVVSSGPFLFIKFVSDYETHGAGFSIRYEIFKRGPECSQNYTAPTGVIKSPGFPEKYPNSLECTYIIFAPKMSEIILEFESFDLEQDSNPPGGVFCRYDRLEIWDGFPEVGPHIGRYCGQKTPGRIRSSSGILSMVFYTDSAIAKEGFSANYSVLQSSISEDFKCMEALGMESGEIHSDQITASSQYGTNWSVERSRLNYPENGWTPGEDSYREWIQVDLGLLRFVTAVGTQGAISKETKKKYYVKTYRVDISSNGEDWITLKEGNKAIIFQGNTNPTDVVFGVFPKPLITRFVRIKPASWETGISMRFEVYGCKITDYPCSGMLGMVSGLISDSQITASNQGDRNWMPENIRLVTSRTGWALPPSPHPYINEWLQVDLGDEKIVRGVIIQGGKHRENKVFMRKFKIAYSNNGSDWKMIMDDSKRKAKSFEGNNNYDTPELRAFTPLSTRFIRIYPERATHSGLGLRMELLGCEVEVPTAGPTTPNGNPVDECDDDQANCHSGTGDDFQLTGGTTVLATEKPTIIDSTIQSEFPTYGFNCEFGWGSHKTFCHWEHDSHAQLRWRVLTSKTGPIQDHTGDGNFIYSQADENQKGKVARLVSPVVYSQSSAHCMTFWYHMSGSHVGTLRVKLHYQKPEEYDQLVWMVVGHQGDHWKEGRVLLHKSLKLYQVIFEGEIGKGNLGGIAVDDISINNHIPQEDCAKPTDLDKKNTEIKIDETGSTPGYEEGKGDKNISRKPGNVLKTLDPILITIIAMSALGVLLGAVCGVVLYCACWHNGMSERNLSALENYNFELVDGVKLKKDKLNPQSNYSEA

Variants of: B1
Conditions: with vegfa_human VEGFA

| Variant | effect of a mutation on the interaction |
| --- | --- |
| S346A | disrupting interaction strength |
| T349A | disrupting interaction strength |
| E348A | disrupting interaction strength |
